Columns and labels:
Settings in all cases: reference: wild type; sites Y554
[1] = biological target: Hic-5 (Myc-tagged) (UniProt Q62219); assay: anti-FLAG co-IP, anti-Myc blot
[2] = biological target: paxillin (Myc-tagged; endogenous in mouse brain) (UniProt Q8VI36); assay: anti-FLAG co-IP, anti-Myc blot
[3] = biological target: Hic-5 (endogenous, HEK293T) (UniProt O43294); assay: anti-FLAG IP, FLAG-peptide elution, Western blot
[4] = biological target: paxillin (endogenous, HEK293T) (UniProt P49023); assay: anti-FLAG IP, FLAG-peptide elution, Western blot

- binding against the reference [1]: stronger
- binding against the reference [2]: stronger
- binding against the reference [3]: stronger
- binding against the reference [4]: stronger
Substance: Git1 (FLAG-, YFP-tagged, transfected) (from UniProt Q9Z272) Y554F
